Experimental data as given in paper PMC11321632 (2024).

Target: Lysosomal Ras-associated protein 7a (RAB7A), recombinant mouse protein (mouse, UniProt P51150 1-207)
Assay: SPR

Sequence of Lysosomal Ras-associated protein 7a (RAB7A), recombinant mouse protein (P51150 whole entry): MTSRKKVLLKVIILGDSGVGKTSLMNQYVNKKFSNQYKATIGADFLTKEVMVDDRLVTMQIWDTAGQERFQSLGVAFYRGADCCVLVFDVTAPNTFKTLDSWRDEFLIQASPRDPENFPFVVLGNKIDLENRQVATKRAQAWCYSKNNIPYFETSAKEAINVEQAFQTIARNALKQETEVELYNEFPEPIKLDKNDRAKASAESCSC

B1: Sirtuin 5 (SIRT5), recombinant mouse protein (enzyme)
chain: SSNMADFRKCFANAKHIAIISGAGVSAESGVPTFRGAGGYWRKWQAQDLATPQAFARNPSQVWEFYHYRREVMRSKEPNPGHLAIAQCEARLRDQGRRVVVITQNIDELHRKAGTKNLLEIHGTLFKTRCTSCGTVAENYRSPICPALAGKGAPEPETQDARIPVDKLPRCEEAGCGGLLRPHVVWFGENLDPAILEEVDRELALCDLCLVVGTSSVVYPAAMFAPQVASRGVPVAEFNMETTPATDRFRFHFPGPCGKTLPEALAPHETERTS
Q: How did the Kd turn out when B1 was run?
A: 31.8 nM
